Laboratory results taken from paper PMC11077590, “The concerted action of SEPT9 and EPLIN modulates the adhesion and migration of human fibroblasts” (Life Science Alliance, 2024).
One block for each binder: values may come before it.

Tests used:
[1] = target: T1, His6-SEPT9 ΔNΔC (G domain, aa 295-567) (UniProt Q9UHD8 295-567); test: pull-down; GST fusion from E. coli extract held on glutathione Sepharose beads, washed with PBS, blocked with 1.5 μM BSA; purified His6-tagged protein added at 1.5 μM for 30 min in PBS with 0.1 mM Zn2+; eluted with 10 mM reduced glutathione; SDS-PAGE and Western blot; conditions: both partners purified
T1 construct: also called ΔNΔC-SEPT9; source: E. coli BL21DE3, purified (HisTrap IMAC, buffered in PBS by PD10)
T1 sequence (looked up): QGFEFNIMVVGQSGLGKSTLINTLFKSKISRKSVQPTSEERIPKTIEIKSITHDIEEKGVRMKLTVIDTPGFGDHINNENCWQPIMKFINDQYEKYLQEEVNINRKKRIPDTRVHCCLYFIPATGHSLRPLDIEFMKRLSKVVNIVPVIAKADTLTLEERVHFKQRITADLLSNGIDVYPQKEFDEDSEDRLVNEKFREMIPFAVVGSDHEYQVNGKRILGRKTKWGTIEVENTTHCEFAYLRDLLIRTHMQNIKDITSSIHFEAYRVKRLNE

[2] = target: T2, GST-EPLIN (full length, isoform alpha) (UniProt Q9UHB6-2 1-599); test: as above; conditions: both partners purified
T2 construct: EPLIN (epithelial protein lost in neoplasm, LIMA1 product), isoform alpha, full length; ORF amplified from Addgene plasmid #40928; numbers count on: isoform alpha; Vector pGEX2T; All EPLIN constructs derive from plasmid #1 (isoform alpha); also called epithelial protein lost in neoplasm; LIMA1 product
T2 sequence (Q9UHB6 161-759): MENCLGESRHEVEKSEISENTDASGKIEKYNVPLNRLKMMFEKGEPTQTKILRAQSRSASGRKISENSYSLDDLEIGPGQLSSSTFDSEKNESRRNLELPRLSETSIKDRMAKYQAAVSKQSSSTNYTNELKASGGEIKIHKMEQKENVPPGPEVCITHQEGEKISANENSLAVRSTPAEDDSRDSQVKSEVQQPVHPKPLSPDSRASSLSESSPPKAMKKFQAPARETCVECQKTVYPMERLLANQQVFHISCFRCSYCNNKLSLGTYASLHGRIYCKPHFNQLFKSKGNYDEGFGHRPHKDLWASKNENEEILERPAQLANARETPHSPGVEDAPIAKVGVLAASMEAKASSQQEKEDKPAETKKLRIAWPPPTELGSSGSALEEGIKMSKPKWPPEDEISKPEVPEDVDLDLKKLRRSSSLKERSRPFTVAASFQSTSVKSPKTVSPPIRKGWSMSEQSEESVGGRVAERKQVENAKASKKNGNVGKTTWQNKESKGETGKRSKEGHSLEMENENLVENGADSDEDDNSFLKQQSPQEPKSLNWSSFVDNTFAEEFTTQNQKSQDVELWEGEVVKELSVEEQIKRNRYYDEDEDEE

- binding result [1]: binds
B1: GST-EPLIN LIM (aa 228-288) (domain or fragment)
chain: not shown
notes: EPLIN (LIMA1 product), isoform alpha, residues 228-288, the LIM domain; Vector pGEX2T; also called isolated LIM domain of EPLIN; plasmid #7

- binding result [2]: binds
B2: His6-SEPT9 (full length, SEPT9i1) (natural protein, UniProt Q9UHD8 1-586, looked up)
chain: MKKSYSGGTRTSSGRLRRLGDSSGPALKRSFEVEEVETPNSTPPRRVQTPLLRATVASSTQKFQDLGVKNSEPSARHVDSLSQRSPKASLRRVELSGPKAAEPVSRRTELSIDISSKQVENAGAIGPSRFGLKRAEVLGHKTPEPAPRRTEITIVKPQESAHRRMEPPASKVPEVPTAPATDAAPKRVEIQMPKPAEAPTAPSPAQTLENSEPAPVSQLQSRLEPKPQPPVAEATPRSQEATEAAPSCVGDMADTPRDAGLKQAPASRNEKAPVDFGYVGIDSILEQMRRKAMKQGFEFNIMVVGQSGLGKSTLINTLFKSKISRKSVQPTSEERIPKTIEIKSITHDIEEKGVRMKLTVIDTPGFGDHINNENCWQPIMKFINDQYEKYLQEEVNINRKKRIPDTRVHCCLYFIPATGHSLRPLDIEFMKRLSKVVNIVPVIAKADTLTLEERVHFKQRITADLLSNGIDVYPQKEFDEDSEDRLVNEKFREMIPFAVVGSDHEYQVNGKRILGRKTKWGTIEVENTTHCEFAYLRDLLIRTHMQNIKDITSSIHFEAYRVKRLNEGSSAMANGMEEKEPEAPEM
notes: derived from plasmid #5 (EGFP-SEPT9, gift of E. Spiliotis); pES is an in-house pET15A-based plasmid for His6-tagged proteins; also called His-SEPT9; purified SEPT9; source: E. coli BL21DE3, purified (HisTrap IMAC, buffered in PBS by PD10)
